Results on one substance are retold here after US20260207757A1.

pKd: −log10 of the molar value.

Test [1] concerns the target type 1 IGF receptor (IGF-1R) (human) (UniProt P08069). In words: competition binding to IGF receptors against radioactive wild type IGF.
Test [2] has the same target. Description: displacement of 125I-IGF-1 from MCF7 cells, 4 C overnight.

Sequence of type 1 IGF receptor (IGF-1R) (human) (P08069 31-1367): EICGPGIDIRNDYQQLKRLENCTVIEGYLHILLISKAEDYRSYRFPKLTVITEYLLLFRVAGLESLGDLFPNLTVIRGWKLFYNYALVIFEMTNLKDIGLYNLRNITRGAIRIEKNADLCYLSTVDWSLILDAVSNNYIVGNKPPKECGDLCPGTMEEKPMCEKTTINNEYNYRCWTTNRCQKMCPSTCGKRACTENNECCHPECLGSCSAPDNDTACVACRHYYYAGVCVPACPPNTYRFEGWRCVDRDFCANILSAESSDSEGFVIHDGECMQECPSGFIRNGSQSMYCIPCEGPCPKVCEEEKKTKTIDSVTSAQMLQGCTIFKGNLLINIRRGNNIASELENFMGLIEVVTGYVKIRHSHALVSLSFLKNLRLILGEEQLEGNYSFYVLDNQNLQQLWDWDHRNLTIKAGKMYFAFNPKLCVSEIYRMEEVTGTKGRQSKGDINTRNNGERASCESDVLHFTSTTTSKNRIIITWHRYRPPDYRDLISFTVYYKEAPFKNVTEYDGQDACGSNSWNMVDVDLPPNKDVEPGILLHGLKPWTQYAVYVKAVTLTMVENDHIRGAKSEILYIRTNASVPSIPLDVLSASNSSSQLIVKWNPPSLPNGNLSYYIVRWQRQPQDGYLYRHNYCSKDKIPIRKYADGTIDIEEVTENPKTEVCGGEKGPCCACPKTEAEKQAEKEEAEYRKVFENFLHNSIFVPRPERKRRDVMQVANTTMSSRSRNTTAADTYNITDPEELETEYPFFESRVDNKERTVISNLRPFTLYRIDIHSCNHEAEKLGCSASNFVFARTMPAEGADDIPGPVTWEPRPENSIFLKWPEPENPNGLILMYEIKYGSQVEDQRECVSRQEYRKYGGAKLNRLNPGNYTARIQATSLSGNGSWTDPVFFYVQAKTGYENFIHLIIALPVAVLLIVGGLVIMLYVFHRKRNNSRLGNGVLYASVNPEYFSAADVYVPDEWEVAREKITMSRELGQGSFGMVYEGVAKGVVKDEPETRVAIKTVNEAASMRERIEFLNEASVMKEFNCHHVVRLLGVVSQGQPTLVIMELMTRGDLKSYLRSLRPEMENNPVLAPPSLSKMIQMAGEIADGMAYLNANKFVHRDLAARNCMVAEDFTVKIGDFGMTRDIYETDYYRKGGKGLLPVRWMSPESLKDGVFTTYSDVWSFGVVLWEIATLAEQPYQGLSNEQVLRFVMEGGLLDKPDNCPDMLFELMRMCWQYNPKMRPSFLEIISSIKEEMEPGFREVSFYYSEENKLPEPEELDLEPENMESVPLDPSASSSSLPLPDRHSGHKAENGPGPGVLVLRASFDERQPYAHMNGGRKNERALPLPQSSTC

What is called pKd is −log10 of the Kd, conventionally taken in molar units. In the case of long-R3-IGF (ligand), the values for the pKd in test [1] and in test [2] were 9.00 and 8.52, respectively.
